The values that follow come from paper PMC3601782.

In this experiment the target is Sox2 (UniProt P48431). Kind of experiment: co-IP Flag-Oct4 variants, endogenous Sox2. The note with it: reference: Flag-Oct4 wild type; sites T235.

With “Oct4 (from UniProt Q01860) Flag-Oct4-T235A”, the “binding against the reference” value is “weaker”.
